For data set [1], the target named is MmPDE5A2 (Mus musculus cGMP-specific phosphodiesterase 5A, isoform A2), produced in K. lactis CBS2359 transformed with p3XFlagPDE5A2 (Mus musculus). As to the kind of experiment: native gel or EMSA; native PAGE, 5% non-denaturing gel, Tris/glycine pH 8.3, 4 C, 1.0 ug purified protein, Coomassie; pre-incubated at 30 C up to 3 h with or without DTT, cGMP, sildenafil or diamide. For orientation: In EMSA bound probe runs differently from free probe, usually more slowly.

Data set [2] has the same target. As to the kind of experiment: SEC; purified protein (300 ug) on Superose 12 HR 10/30, 4 C, 0.20 mL/min, 20 mM HEPES pH 7.0, 1 mM EGTA, 5 mM beta-mercaptoethanol, 5 mM MgCl2, 100 mM NaCl, 2 mM PMSF, 0.05% Triton X-100; fractions tested for cGMP-hydrolysing activity and by native Western blot; column calibrated with MW markers. A general note: Size exclusion chromatography separates by hydrodynamic size, large species first.

For data set [3], the target named is MmPDE5A2 produced in the K. lactis ragx1 mutant (Mus musculus). Briefly: native gel or EMSA; native PAGE, 5% non-denaturing gel, Tris/glycine pH 8.3, 4 C, 1.0 ug purified protein, Coomassie; pre-incubated at 30 C up to 3 h with or without DTT, cGMP, sildenafil or diamide.
For data set [4], the target named is MmPDE5A3 (Mus musculus cGMP-specific phosphodiesterase 5A, isoform A3), produced in K. lactis wild type strain CBS2359 (Mus musculus). The description is as above.
Data set [5] has the same target. As to the kind of experiment: SEC; purified protein (300 ug) on Superose 12 HR 10/30, 4 C, 0.20 mL/min, 20 mM HEPES pH 7.0, 1 mM EGTA, 5 mM beta-mercaptoethanol, 5 mM MgCl2, 100 mM NaCl, 2 mM PMSF, 0.05% Triton X-100; fractions tested for cGMP-hydrolysing activity and by native Western blot; column calibrated with MW markers.
The target in data set [6] is MmPDE5A3 produced in the K. lactis ragx1 mutant (Mus musculus). Briefly: native gel or EMSA; native PAGE, 5% non-denaturing gel, Tris/glycine pH 8.3, 4 C, 1.0 ug purified protein, Coomassie; pre-incubated at 30 C up to 3 h with or without DTT, cGMP, sildenafil or diamide.
Data set [7] concerns the molecule itself. Briefly: native gel or EMSA; native PAGE of K. lactis cell extracts with in-gel activity staining for G6PDH; cultures on various glucose concentrations, methylene blue, G418, ethanol; extracts also incubated overnight with NAD+ or NADP+.

Several values for one entry are separate records, joined by “and”; a condition that tells them apart may be missing. Identical values can stand only once.

One may read the stoichiometry N as a count of units in the complex or per binding partner.

As to “MmPDE5A2 (Mus musculus cGMP-specific phosphodiesterase 5A, isoform A2), produced in K. lactis CBS2359 transformed with p3XFlagPDE5A2 (enzyme)”, the stoichiometry N in data set [1] and in data set [2] was 2 throughout. “MmPDE5A2 produced in the K. lactis ragx1 mutant (enzyme)” gave a stoichiometry N in data set [3] of 2. “MmPDE5A3 (Mus musculus cGMP-specific phosphodiesterase 5A, isoform A3), produced in K. lactis wild type strain CBS2359 (enzyme)”: the stoichiometry N in data set [4] and in data set [5] was 2 throughout. The molecule “MmPDE5A3 produced in the K. lactis ragx1 mutant (enzyme)” gave a stoichiometry N in data set [6] of 2.

B1: Glc-6-phosphate dehydrogenase (G6PDH) of Kluyveromyces lactis (enzyme, K. lactis (endogenous in CBS2359), UniProt P48828 1-497, looked up)
chain: MATQFDENTVITIFGASGDLSKKKTFPALFGLYREGYLNPTTKIIGYARSKLSNEDLREKVKPFLKKPNGAKDDAKVNEFLSMVSYHAGPYDSDEGYLELKKIIEEFEAEKKVDEPHRLFYLALPPSIFIDVCSKLKENLYTESGIQRVIVEKPFGHDLQSATELQEKLAPLFSEDELFRIDHYLGKEMVKNLLLMRFGNTFLNAAWNKENIQSVQVVFKEPFGTEGRGGYFDSIGIIRDVMQNHLLQVLTLLTMERPVSFDPESVRDEKVKVLKAFSPIDHDDILIGQYGRSVDGSKPSYLDDETVKEDSKCVTFAAIGFKIANERWDGVPIVMRAGKALNEGKVEIRIQFRRVASGMFTDIPNNELVIRIQPNEAIYLKCNAKTPGLANENQTTELDLTYSERYKNYWIPEAYESLIRDALLGDHSNFVRDDELDVSWKLFTPLLNYLEGPDGPQPKIYPYGCRSPDGLVEFLADHGYTFSKPGSYQWPVTTPKM
notes: glucose-6-phosphate 1-dehydrogenase, Kluyveromyces lactis, endogenous enzyme seen by in-gel activity staining; Seen as a slow (tetramer) and a faster (dimer) band; also called glucose 6-phosphate dehydrogenase; source: endogenous, K. lactis cell extracts
B1: in data set [7], the “stoichiometry N” value is 4 and 2.
